Earlier results, collected in publication PMC9760430, “A stapled chromogranin A-derived peptide homes in on tumors that express αvβ6 or αvβ8 integrins” (International Journal of Biological Sciences, 2023).

Tests used:
[1] = biological target: integrin αvβ6 (Homo sapiens) (UniProt P06756); conditions: cited from earlier work
[2] = biological target: integrin αvβ8 (Homo sapiens) (UniProt P06756); conditions: cited from earlier work
integrin αvβ8 (Homo sapiens), sequence (P06756 31-992, chain 1 of 2): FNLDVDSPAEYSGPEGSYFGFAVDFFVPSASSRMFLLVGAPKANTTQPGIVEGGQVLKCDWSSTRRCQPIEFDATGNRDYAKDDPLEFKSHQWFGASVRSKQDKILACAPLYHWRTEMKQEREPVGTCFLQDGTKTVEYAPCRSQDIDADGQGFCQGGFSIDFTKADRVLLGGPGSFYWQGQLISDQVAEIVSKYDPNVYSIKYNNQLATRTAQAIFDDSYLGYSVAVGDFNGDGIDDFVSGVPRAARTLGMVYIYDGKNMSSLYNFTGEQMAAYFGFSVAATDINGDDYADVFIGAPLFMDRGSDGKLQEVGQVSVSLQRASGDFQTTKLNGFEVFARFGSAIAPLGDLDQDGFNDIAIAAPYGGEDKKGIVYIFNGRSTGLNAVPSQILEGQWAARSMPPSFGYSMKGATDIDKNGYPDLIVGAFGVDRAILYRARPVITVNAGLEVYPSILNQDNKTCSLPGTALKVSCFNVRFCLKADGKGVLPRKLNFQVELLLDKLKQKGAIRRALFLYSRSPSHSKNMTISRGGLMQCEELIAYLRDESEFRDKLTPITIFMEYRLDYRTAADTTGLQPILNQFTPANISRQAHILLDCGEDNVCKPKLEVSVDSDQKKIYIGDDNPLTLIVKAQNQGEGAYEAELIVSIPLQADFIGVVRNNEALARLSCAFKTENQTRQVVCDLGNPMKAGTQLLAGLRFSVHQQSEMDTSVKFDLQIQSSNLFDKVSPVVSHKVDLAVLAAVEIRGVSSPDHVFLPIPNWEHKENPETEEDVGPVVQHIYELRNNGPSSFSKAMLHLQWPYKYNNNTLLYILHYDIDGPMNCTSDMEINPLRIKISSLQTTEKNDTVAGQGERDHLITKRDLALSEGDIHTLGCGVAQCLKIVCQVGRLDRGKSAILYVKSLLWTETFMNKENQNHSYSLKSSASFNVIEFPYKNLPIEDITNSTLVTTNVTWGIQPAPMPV
integrin αvβ8 (Homo sapiens), sequence (P26012 43-684, chain 2 of 2, further chain): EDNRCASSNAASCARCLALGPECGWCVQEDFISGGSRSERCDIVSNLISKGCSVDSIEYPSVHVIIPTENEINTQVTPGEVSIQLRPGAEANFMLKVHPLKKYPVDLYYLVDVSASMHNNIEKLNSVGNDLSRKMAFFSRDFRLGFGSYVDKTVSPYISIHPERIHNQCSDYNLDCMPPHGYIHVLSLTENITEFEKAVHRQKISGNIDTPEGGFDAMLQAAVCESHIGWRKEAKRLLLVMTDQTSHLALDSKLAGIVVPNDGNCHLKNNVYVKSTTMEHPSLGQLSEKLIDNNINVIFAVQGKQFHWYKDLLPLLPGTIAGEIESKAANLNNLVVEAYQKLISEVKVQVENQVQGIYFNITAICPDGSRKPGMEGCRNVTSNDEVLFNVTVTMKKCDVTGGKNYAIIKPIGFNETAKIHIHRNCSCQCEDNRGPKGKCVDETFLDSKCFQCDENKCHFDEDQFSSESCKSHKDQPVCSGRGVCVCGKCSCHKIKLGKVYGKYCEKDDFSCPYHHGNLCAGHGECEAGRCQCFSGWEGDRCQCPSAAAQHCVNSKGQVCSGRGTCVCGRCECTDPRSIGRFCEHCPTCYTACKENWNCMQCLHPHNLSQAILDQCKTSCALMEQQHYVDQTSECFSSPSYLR

chromogranin A-derived peptide 5, sequence (P10645 57-81): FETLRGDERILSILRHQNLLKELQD
integrin αvβ6 (Homo sapiens), sequence (P06756 31-992, chain 1 of 2): as the sequence (P06756 31-992, chain 1 of 2) above
integrin αvβ6 (Homo sapiens), sequence (P18564 22-709, chain 2 of 2, further chain): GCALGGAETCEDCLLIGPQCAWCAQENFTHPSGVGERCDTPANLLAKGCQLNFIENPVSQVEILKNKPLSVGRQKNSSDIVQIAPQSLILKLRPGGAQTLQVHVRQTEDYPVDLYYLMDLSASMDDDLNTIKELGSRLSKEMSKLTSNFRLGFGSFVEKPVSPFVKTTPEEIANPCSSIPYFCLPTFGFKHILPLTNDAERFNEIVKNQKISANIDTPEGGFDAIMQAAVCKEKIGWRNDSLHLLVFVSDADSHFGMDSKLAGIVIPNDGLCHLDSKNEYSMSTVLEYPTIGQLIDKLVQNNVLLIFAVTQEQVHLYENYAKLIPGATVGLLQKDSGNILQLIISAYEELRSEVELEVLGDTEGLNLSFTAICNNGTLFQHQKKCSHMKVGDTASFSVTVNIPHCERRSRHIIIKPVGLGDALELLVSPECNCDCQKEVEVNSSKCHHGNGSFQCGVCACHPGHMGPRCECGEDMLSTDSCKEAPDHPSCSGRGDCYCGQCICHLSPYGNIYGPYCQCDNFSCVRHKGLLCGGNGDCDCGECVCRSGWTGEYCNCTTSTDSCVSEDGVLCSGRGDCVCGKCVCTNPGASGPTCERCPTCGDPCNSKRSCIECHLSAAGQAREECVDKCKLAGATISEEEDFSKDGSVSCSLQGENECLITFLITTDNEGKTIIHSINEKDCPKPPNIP

chromogranin A-derived peptide 5 (from UniProt P10645)
Ki [1]: 0.6 nM | Ki [2]: 3.2 nM
